# From the nanobody polyreactivity screen of Harvey et al. (2022)
# Assay: yeast display, Sf9 membrane polyspecificity reagent, FACS + sequencing; frameworks hold sequencing errors
# Summary of the method: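 Galactose induction of a Saccharomyces cerevisiae BJ5465 synthetic nanobody display library ran 36–48 hours. The cells were then stained for 1 hour at 4 °C with 10% biotinylated, detergent-solubilized Sf9 membrane reagent, pulled down on streptavidin microbeads and FACS-sorted into low and high (top ~1%) gates on expression and reagent-binding fluorescence. Labels for polyreactivity follow the gate of origin.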
row,Sequence,polyreactivity (PSR sort gate)
1,QVQLVESGGGLVQAGGSLRLSCAASGRTFYSYVMGWYRQAPGKERELVAAISGRGVSTYYADSVKGRFTISRDNAKNTVYLQMNSLKPEDTAVYYCAAETVHGSADFDYWGQGTQVTVSS,low polyreactivity
2,QVQLVESGGGLVQAGGSLRLSCAASGSIFAWYAMGWYRQAPGKERELVATITWSGGSTYYADSVKGRFTITRDNAKNTVYLQINSLKPEDTAVYYCAAEVVGIWYDLWYQGDYWGQGTQVTVSS,low polyreactivity
3,QVQLVESGGGLVQAGGSLRLSCAASGYTFYSYALGWYRQAPGKERELVAAITSGGRTNYADSVKGRFTISRDNAKNTVYLQMNSLKPEDTAVYYCAAYVFRAYGRYYYWGQGTQVTVSS,high polyreactivity
4,QVQLVESGGGLVQAGGSLRLSCAASGGTFPVYALGWYRQAPGKERELVAAISYSGVTTYYADSVKGRFTISRDNAKNTVYLQMNSLKPEDTAVYYCNADWRRWYIFSYDYWGQGTQVTVSS,low polyreactivity
5,QVQLVESGGGLVQAGGSLRLSCAASGSIFYTNAMGWYRQAPGKERELVAAITGGGRTNYADSLKGRFTISRDNAKNTVYLQMNSLKPEDNAVYYCAARTGYRYYTGDYWGQGTQVTVSS,high polyreactivity
6,QVQLVESGGGLVQAGGSLRLSCAASGSIFEDYTRGWYRQAPGKERELVAAIDWSDASTFYADSVKGRFTISRDNAKNTVYLQMSLNPEDTAVYYCNVAIIFYDDDYWGQGTQVTVSS,high polyreactivity
7,QVQLLESGGGLVQAGGSLRLSCAASGNIFMDYAMGWYRHAPGKERELVAAITSRVDDTYYADSVKGRFTISRDNAKNTVYLQMNSLKPEDTAVYYCAADYSVTLRIGGYYWFYAFDYWGQGTQVTVSS,low polyreactivity
8,QVQLVESGGGLVQAGGSRRLTCAASGFTFEYYAMGWYRQAPGTERELVAAISYSGSSTYYADSVKGRFTISRDNAKNTVYLQMNSLKPEDTAVYYCAARAVSRRFDYWGQGTQVTVSS,high polyreactivity
9,QVQHVESGGGLVQAGGSLRLSCAASGSTFWYNAMGWYRQAPGKERELVAAISYSGGRTYYADSVKERFTISRDNAKNTVYLQMNSLKPEDTAVYYCNAASRYGGDYWGQGTQVTVSS,low polyreactivity
10,QVQLVESGGGLVQAGGSLRLSCAASGIIFYRYTMGWYRQAPGKERELVAAITSGGDTNYADSVKGRFTISRDNAKNTVYLQMNSLKPEDTAVYYCNADCWWYLYLYDFWGQGTQVTVSS,high polyreactivity
11,QVQLVESGGGLVQAGGSLRLSCAASGYTFARYAMGWYRQATGKERELVAANTSGDRTNYADSVKGRFTISRDNAKNTVYLQMNSLKPEDTAVYYCNATLYSYDASDYWGQGTQVTVSS,low polyreactivity
12,QVQLVESGGGLVQAGGSLRLSYAASGSIFGRYVMGWYRQAPGKERELVAAIKRSGGRTYYADSVKGRFTISRDNAKNTVYLQMNSLKPEDTAVYYCATYTGYSASKEVPYDYWGQGTQVTVSS,high polyreactivity
13,QVQLVESGGGLVQAGGSLRLSCAASGLIFFPKAMGGYRPAPGKERELVAYITWSGGGTNYSDSVKGRFTISRDNAKNTVYLQMNSLKPEDTAVYYCNADGTRDYFSLITGSYSVTYDYWGQGTQVTVSS,high polyreactivity
14,QVQLVESGGGLVQAGGSLRLSCAASRSTFGFYAMGWYRQAPGTERELVAAISRRGGTTYYADSVKGRFTISRDIAKNTFYLQMNSLKPEDTAVYYCAARIHYYAGYDYWGQGTQVTVSS,high polyreactivity
15,QFQLVESVGCLVQAGGSLRLSCAASGILFSWYAMGWYRQPPGKERELVAAISKGGGSTYYADSVKGRFTISRDNAKNTVYLQMNSLIPEDTAVYYCAADSSYGYGYWGQGTQVTVSS,high polyreactivity
16,QVQLVESGGGLVQAGGSLRLTCAASGRTYNLYAMGWSRQAPGKERELVAAISSSTDSTYYAYSVKGRFTISRDNAKITVYLEMNSLKPEDTSVYYFAARRPSYPRYGYWGQGTQVTVSS,high polyreactivity
17,HVQLVESAGGLVQAGGSLRVSCAASGRTFVENAMGWYRQAPGKERELVAAITYRGGRTFYADSVKGRFTISLDNAKNTVYLQMNSLTPEETAVYYCNAVRRTGGHGDYWGHGTQVTVSS,high polyreactivity
18,QVQLVESGGGLVQAGGSLRLSCAASGSIFVYYGMGWYRQAPGKEWELVAAMSSGGSSHYADSVKGRFTISRVTAKNSVYLQMNSLKPEDTAVYYCPADGFFWQRSYTRYYYWGQGSQVTVSS,low polyreactivity
19,QVQLVESGGGLVQAGGSLRLSCAASGFTFRYYVMGWYRQAPGIERELVAAISWSGGSTYYADSVKGRFTISRDNAKYTVYLQMNSLNPEDTAVYYCNAASLSKSDYWGQGTQVTVSS,high polyreactivity
20,QVQLVESGGGLVQAGGSLRLSCAASGSTFTGYTMGWYRQAPGKERELVAAISRRGTSTYYADSVKGRFTISRDNAKNSVYLQMNSLKPEDTAVYYCADYQGQKGYDYWGQGTQVTVSS,high polyreactivity
21,QVQLVESGGGLVQAGGSLRLSCAASGRTYRQNAMGWYRQAPGKEGELVAAISSSGTNTHYADSVKGRFTISRDNAKNTVYLQMTSLKPEDTAVYYCAADSWGARRKQYHENGYWGQGSQVTVSS,high polyreactivity

row,Sequence,polyreactivity (PSR sort gate)
1,QVQLVESGGGLVQAGGSLRLSCAASGSTFRTNAMGWYRQAPGKERELVAAITYRAGNTYYADSVKGRFTISRDNAKNTVYLQMNSLKPEDTAVYYCNAESLSFPARGRAYRYYYWGQGTQVTVSS,high polyreactivity
2,QVQLVESGGGLVQAGGSLRLSCADSGIIFYYNAMGWYRQAPGKEREFVAAIDDRGDSTYYADSVKGRFTISRDNAKNTVYLQMNSLKPEDTAVYYCAARDGYLYFDAMDYWGQGTLVTVSS,low polyreactivity
3,QVQLVESGGGLVQAGGSLRLSCAASGSIFDRYDMGWYRQAPGKERELVAVINWSGGTTYYADSVKGRFTISRDNAKNTVYLQMNSLKPEDTAVYYCAADGSKPYAMDYWGQGTQVTVSS,high polyreactivity
4,QVQLVESGGGLVQAGGSLRLSCAASGSIRSYAMGWYRQAPGKERELVAAITRSGGSTYYADSVKGRFTISRDNAKITVYLQMNSLKPEDTAFYYCAARYTYSYPLFGSWGQGTQVTVSS,high polyreactivity
5,QVQLVESGGGLVQAGGSLRLSCAASGSIFENNAMGWYRQAPGKERELVAAISSDDTTNYADSVKGRFTISRDNAKNTVYLQMNSLKPEDTAVYYCATDYDVYGYPYDYGYWGQGTQVTVSS,low polyreactivity
6,QVQLVESGGGLVQAGGSLRLSCAASGRIFTINAMGWYRQAPGKERELVAAISNSGGRTYADSVKGRFTISRDNAKNTVYLLMNSLKAEDTAVYYCAKRYRFHFWGQGTQVTVSS,low polyreactivity
7,QVQLVESGGGLVQAGGRLRLSCAASGFTFVKNAMGWYRQAPGKERELVAAISSRGGSTYYADSVKGRFTISRDNAKNTVYLQMNSLKAEDTAVYYCATERERTMGYWGQGTQVTDSS,high polyreactivity
8,QVQLVESGGGLVQAGGSLRLTCAASGNIFISYAMGWYRQAPGKEMELVAAISRSGGSTYYADSVKGRFTISRDNEKNSVYLLMNSLKPEDTAVYYCAAYIGQGRYGSWGQGTQVNVSS,high polyreactivity
9,QVQLVESGGGLVQAGGSLRLSCAASGLTFVAYGMGWYRQAPGKERELVATIRWRGGSTYYADSVKGRFTISRDNAKNTVYLQMNSLKPEDTAVYYCAATRARRWSSPGQYGYWGQGTQVTVSS,high polyreactivity
10,QVQLVESGGGLVQAGGSLRLSCAASGLIFVVYVMGWYRQAPGKERELVAAISGSGDSTYYADSVKGRFTISRDNAKNTVYLQMNSLKPEDTAVYYCNARSISRKKGYPPQRSDGYWGQGTQVTVSS,high polyreactivity
11,QVQLVESGGGLVQAGGSLRLSCAASGSTFWWKTMGWYRLAPGKERELVADIRTSGGGTYYADSVKGRFTISRDNAKNNVYLQMYSLKPEDTAVYYCNADPKWEMGSWGQGTQVTVSS,low polyreactivity
12,QVQLVESGGGLVQAGGSLRLSCAASGRTLRWYAMGWYRQAPGKERELVAAITWRGGSTRYADSVKGRFTISRDNAKNTVYLQMNSLKPEDTAVYYCNKYYYRTIEGDYWGQGTQVTVSS,high polyreactivity
13,QVQLQESVGGLVQAGGSLRLSCAASGTIFRISDMGSYRQAPGKEREFVAAITYGANTYYADSGKGRFTISRDNAKNTVYLQMNSLKPEDTAVYYCAVPPVKETILDYWGQGTQVTVSS,low polyreactivity
14,QVQLVESGGGLVQAGGSLRLSCAASGRIFDIYALGWYRQAPGKERELVAAITWRGGSTYYADSVKGRFTISRDNAKNTVYLQMNSLKPEDTAVYYCAVDFITPRGSYYWGQGTQVTVSS,low polyreactivity
15,QVQLVESGGGLVQAGGSLRLSCAASGFIFRFYAMGWYRQAPGKERELVAGISSSGGSTYYADSLKGRFTISRDNAKTTVYLQMNSLKPEDTAVYYCNAKRSDQSSKTFNYWGQGTQVTVSS,low polyreactivity
16,QVQLVESGGGLVQAGGSLRLSCAASGIIFGTNAMGWYRQAPGKERELVAYITSGGSTYADSVKGRFKISRDNAKNTVYLQMNSLKPEDTAVYSCAAYVFWAFYEYDYWGQGTQVTVSS,low polyreactivity
17,QVQLVESGGGLVQAGGSLRLSCAASGRTFRPYALGGYRPAPGKERELVAVITSGGSTYYADSVKGRFTISRDNAKNTVYLQMNSLKPEDTAVYYCARVYRSYAWSGYDYWGQGTQVTVSS,high polyreactivity
18,QVQLVESGGGLVQAGGSLRLSCAASGLTFPYYVMGWYRQAPGKERELVAAISSSGGSTYYADSVKGRFTISRDNAKNTVYLQMNSLKPEDTAVYYCNAPYVFSAGFDYWGQGTQVTVSS,low polyreactivity
19,QVQLVESGGGLVQAGGSLRLSCAASGSTFNFNVMGWYRQAPGKERELVAAISSSGGNTYYADSVKGRFTISRDNAKNTVYLQMNSLKPEDTAVYYCAAEYEEWYSVFLYDYWGQGTQVTVSS,high polyreactivity
20,QVQLVESGGGLVQAGGSLRLSCAASGIIFRLYGMGWYRQAPGKERELVAGINTGGSTYADSVKGRFTISRDNAKNTVYLQMNSLKPEDTAVYYCATGPYLIYDYWGQGTQVTVSS,low polyreactivity
